Test results taken from US20220307001.

What was measured:
[1] = tested on: xCas9(3.7)-BE3 (Streptococcus pyogenes); assay: cell_activity; details: HEK293T; PAM GAA; SD 0.75; >50-fold over SpCas9-BE3
[2] = tested on: xCas9 3.7 nuclease (evolved SpCas9) (Streptococcus pyogenes); assay: cell_activity; details: GUIDE-seq HEK293T

FANCF GAA site sgRNA spacer ; FANCF GAA PAM target
activity (% C-to-T editing) [1]: 10
activity (on-target reads) ([2]; PAM GAA, no off-target reads): 3630

EMX1 site sgRNA spacer ; EMX1 site target, GGG PAM
activity (on-target reads) ([2]; PAM GGG, zero off-target reads): 6870

FANCF CGT site sgRNA spacer ; FANCF CGT PAM target
activity (on-target reads) ([2]; PAM CGT, no off-target reads): 3060
